Stoichiometry N data for one substance are collected here from article doi:10.1101/2023.12.15.571702.

This test deals with piperazate synthase PipS, C-terminal His6-tagged (holo-PipS) (Streptomyces griseus subsp. griseus NRRL F-5144). As to the kind of experiment: crystal structure.

The stoichiometry N is a count of units in the complex or per binding partner. As for “piperazate synthase PipS, C-terminal His6-tagged (holo-PipS) (enzyme)”, the stoichiometry N was determined as 2.
